Data on eight molecules can be found in patent US20140058068A1 (UNIVERSITY OF MIAMI, published 2014).

In assay [1] the target is GHRH receptor of human pituitary membrane homogenates (human) (UniProt Q02643). Put plainly: radioligand competition, [His1,125I-Tyr10,Nle27]hGHRH(1-32)NH2 (0.2 nM) as competitor, human pituitary membrane homogenates. For orientation: Loss of bound radioactivity is the signal in a displacement assay; it reports binding, not function.
Assay [2] shares this target. Put plainly: radioligand competition, 125I-JV-1-42 (~0.2 nM) as competitor, human pituitary membrane homogenates.
Assay [3] has the same target. The assay is described as above. The source holds these as a separate data set.
Assay [4] deals with T1, GHRH receptor of human pituitary membrane homogenates (human, UniProt Q02643 23-423).
T1 construct: whole, on cells; Native receptor in pituitary membrane homogenates, not intact cells; also called hGH-RH receptor
T1 sequence (looked up): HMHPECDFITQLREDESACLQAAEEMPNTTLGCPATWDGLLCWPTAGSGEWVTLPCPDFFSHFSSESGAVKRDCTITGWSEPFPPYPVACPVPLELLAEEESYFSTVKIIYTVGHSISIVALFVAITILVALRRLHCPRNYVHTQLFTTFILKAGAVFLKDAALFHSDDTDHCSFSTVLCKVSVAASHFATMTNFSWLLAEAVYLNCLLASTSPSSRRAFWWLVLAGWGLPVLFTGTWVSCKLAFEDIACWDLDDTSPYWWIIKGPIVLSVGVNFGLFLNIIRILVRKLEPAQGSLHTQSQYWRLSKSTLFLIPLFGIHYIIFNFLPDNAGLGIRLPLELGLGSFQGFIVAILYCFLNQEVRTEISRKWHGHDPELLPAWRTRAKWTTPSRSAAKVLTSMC
The assay is described as above. From the text:
(§1) Normal human pituitaries were purchased from the National Hormone and Peptide Program (A. F. Parlow, Los Angeles, County Harbor-UCLA Medical Center, Torrance, Calif.).

The target in assay [5] is T1, GHRH receptor of human pituitary …. The description is as above. How it is done: as §1
The final binding affinities were expressed as IC₅₀ values and were calculated by using the LIGAND PC computerized curve-fitting program of Munson and Rodbard as modified by McPherson.
The source holds these as a separate data set.

For assay [6] the target is unchanged. Put plainly: radioligand competition, [His1,125I-Tyr10,Nle27]hGHRH(1-32)NH2 (0.2 nM) as competitor, human pituitary membrane homogenates. From the text:
Normal human pituitaries were purchased from the National Hormone and Peptide Program (A. F. Parlow, Los Angeles, County Harbor—UCLA Medical Center, Torrance, Calif.).

Square brackets hold non-standard residues; d marks the D form. Ends that are not written are not given here. * marks the point of attachment. Desaminotyrosyl = O=C(CCc1ccc(O)cc1)*; NMeY = CN[C@@H](Cc1ccc(O)cc1)C(=O)O; hArg = N=C(N)NCCCC[C@H](N)C(=O)O; Agmatine = N=C(N)NCCCCN*; Nle = CCCC[C@H](N)C(=O)O; Orn = NCCC[C@H](N)C(=O)O; Abu = CC[C@H](N)C(=O)O; GABA = NCCCC(=O)O

By IC50 is commonly meant the concentration needed to halve the response being measured. Lower therefore signals greater potency in that assay. “[Dat^1, D-Ala^2, Gln^8, Orn^12, Abu^15, Orn^21, Nle^27, Asp^28, Amc^30]hGH-RH(1-30)NH2 (from UniProt P01286 32-61) (peptide)”: in assay [1], the IC50 amounted to 80 pM; the Relative affinity (Binding potency) vs GHRH (fold, GHRH(1-29) = 1) amounted to 74; the Relative affinity (Binding potency) vs JI-38 (fold, JI-38 = 1) came to 24.4.

In assay [2], “[Dat^1, D-Ala^2, Fpa5^6, Orn^12, Abu^15, Orn^21, Nle^27, Gab^30]hGH-RH(1-30)NH2 (from UniProt P01286 32-61) (peptide)” had an IC50 of 330 pM and a Relative affinity (Binding potency) vs JI-38 (fold, JI-38 = 1) of 13.2. In assay [3], this molecule showed an IC50 of 70 pM; a Relative affinity (Binding potency) vs GHRH (fold, GHRH(1-29) = 1) of 58; a Relative affinity (Binding potency) vs JI-38 (fold, JI-38 = 1) of 24.4.

In assay [2], “[Dat^1, D-Ala^2, Gln^8, Orn^12, Abu^15, Orn^21, Nle^27, Asp^28, Agm^29]hGH-RH(1-29) (from UniProt P01286 32-60) (peptide)” displayed an IC50 of 520 pM and a Relative affinity (Binding potency) vs JI-38 (fold, JI-38 = 1) of 8.37. Besides, in assay [3], the IC50 stood at 40 pM; the Relative affinity (Binding potency) vs GHRH (fold, GHRH(1-29) = 1) came to 102; the Relative affinity (Binding potency) vs JI-38 (fold, JI-38 = 1) stood at 42.7.

Turning to [NMeY]ADAIFTQSYR[Orn]VL[Abu]QLSAR[Orn]LLQDI[Nle]D[Agmatine] (also called P20356) [[N-Me-Tyr^1, Gln^8, Orn^12, Abu^15, Orn^21, Nle^27, Asp^28, Agm^29]hGH-RH(1-29)], in assay [4], the IC50 turned out to be 270 pM and the “Relative affinity (Binding potency) vs JI-38” value was 16.1 fold, JI-38 = 1. Also, in assay [5], the IC50 turned out to be 10 pM; the “Relative affinity (Binding potency) vs GHRH” value was 406 fold, GHRH(1-29) = 1; the “Relative affinity (Binding potency) vs JI-38” value is 171 fold, JI-38 = 1.

B1: [Dat^1, D-Ala^2, Ala^8, Orn^12, Abu^15, Orn^21, Nle^27, Asp^28, Har^30]hGH-RH(1-30)NH2 (peptide)
chain: [Desaminotyrosyl][dA]DAIFTASYR[Orn]VL[Abu]QLSAR[Orn]LLQDI[Nle]DR[hArg]-NH2
SMILES: CCCC[C@H](NC(=O)[C@@H](NC(=O)[C@H](CC(=O)O)NC(=O)[C@H](CCC(N)=O)NC(=O)[C@H](CC(C)C)NC(=O)[C@H](CC(C)C)NC(=O)[C@H](CCCN)NC(=O)[C@H](CCCNC(=N)N)NC(=O)[C@H](C)NC(=O)[C@H](CO)NC(=O)[C@H](CC(C)C)NC(=O)[C@H](CCC(N)=O)NC(=O)[C@H](CC)NC(=O)[C@H](CC(C)C)NC(=O)[C@@H](NC(=O)[C@H](CCCN)NC(=O)[C@H](CCCNC(=N)N)NC(=O)[C@H](Cc1ccc(O)cc1)NC(=O)[C@H](CO)NC(=O)[C@H](C)NC(=O)[C@@H](NC(=O)[C@H](Cc1ccccc1)NC(=O)[C@@H](NC(=O)[C@H](C)NC(=O)[C@H](CC(=O)O)NC(=O)[C@@H](C)NC(=O)CCc1ccc(O)cc1)[C@@H](C)CC)[C@@H](C)O)C(C)C)[C@@H](C)CC)C(=O)N[C@@H](CC(=O)O)C(=O)N[C@@H](CCCNC(=N)N)C(=O)N[C@@H](CCCCNC(=N)N)C(N)=O
Turning to B1, in assay [6], the IC50 amounted to 40 pM; the “Relative affinity (Binding potency) vs GHRH” value was 148 fold, GHRH(1-29) = 1; the “Relative affinity (Binding potency) vs JI-38” value was 48.7 fold, JI-38 = 1.

B2: [Dat^1, D-Ala^2, Orn^12, Abu^15, Orn^21, Nle^27, Gln-Gab^30]hGH-RH(1-30)NH2 (peptide)
peptide: [Desaminotyrosyl][dA]DAIFTNSYR[Orn]VL[Abu]QLSAR[Orn]LLQDI[Nle]SRQ[GABA]-NH2
SMILES: CCCC[C@H](NC(=O)[C@@H](NC(=O)[C@H](CC(=O)O)NC(=O)[C@H](CCC(N)=O)NC(=O)[C@H](CC(C)C)NC(=O)[C@H](CC(C)C)NC(=O)[C@H](CCCN)NC(=O)[C@H](CCCNC(=N)N)NC(=O)[C@H](C)NC(=O)[C@H](CO)NC(=O)[C@H](CC(C)C)NC(=O)[C@H](CCC(N)=O)NC(=O)[C@H](CC)NC(=O)[C@H](CC(C)C)NC(=O)[C@@H](NC(=O)[C@H](CCCN)NC(=O)[C@H](CCCNC(=N)N)NC(=O)[C@H](Cc1ccc(O)cc1)NC(=O)[C@H](CO)NC(=O)[C@H](CC(N)=O)NC(=O)[C@@H](NC(=O)[C@H](Cc1ccccc1)NC(=O)[C@@H](NC(=O)[C@H](C)NC(=O)[C@H](CC(=O)O)NC(=O)[C@@H](C)NC(=O)CCc1ccc(O)cc1)[C@@H](C)CC)[C@@H](C)O)C(C)C)[C@@H](C)CC)C(=O)N[C@@H](CO)C(=O)N[C@@H](CCCNC(=N)N)C(=O)N[C@@H](CCC(N)=O)C(=O)NCCCC(N)=O
notes: T0009 prints Asn^s for Asn^8; also called P29702
In the case of B2, in assay [4], the IC50 was determined as 860 pM and the “Relative affinity (Binding potency) vs JI-38” value was 5.06 fold, JI-38 = 1. Also, in assay [5], the concentration for half-maximal inhibition (IC50) was determined as 50 pM; the “Relative affinity (Binding potency) vs GHRH” value is 81.2 fold, GHRH(1-29) = 1; the “Relative affinity (Binding potency) vs JI-38” value is 34.2 fold, JI-38 = 1.

B3: [Dat^1, D-Ala^2, Orn^12, Abu^15, Orn^21, Nle^27, Asp^28, Har^30]hGH-RH(1-30)NH2 (peptide)
chain: [Desaminotyrosyl][dA]DAIFTNSYR[Orn]VL[Abu]QLSAR[Orn]LLQDI[Nle]DR[hArg]-NH2
SMILES: CCCC[C@H](NC(=O)[C@@H](NC(=O)[C@H](CC(=O)O)NC(=O)[C@H](CCC(N)=O)NC(=O)[C@H](CC(C)C)NC(=O)[C@H](CC(C)C)NC(=O)[C@H](CCCN)NC(=O)[C@H](CCCNC(=N)N)NC(=O)[C@H](C)NC(=O)[C@H](CO)NC(=O)[C@H](CC(C)C)NC(=O)[C@H](CCC(N)=O)NC(=O)[C@H](CC)NC(=O)[C@H](CC(C)C)NC(=O)[C@@H](NC(=O)[C@H](CCCN)NC(=O)[C@H](CCCNC(=N)N)NC(=O)[C@H](Cc1ccc(O)cc1)NC(=O)[C@H](CO)NC(=O)[C@H](CC(N)=O)NC(=O)[C@@H](NC(=O)[C@H](Cc1ccccc1)NC(=O)[C@@H](NC(=O)[C@H](C)NC(=O)[C@H](CC(=O)O)NC(=O)[C@@H](C)NC(=O)CCc1ccc(O)cc1)[C@@H](C)CC)[C@@H](C)O)C(C)C)[C@@H](C)CC)C(=O)N[C@@H](CC(=O)O)C(=O)N[C@@H](CCCNC(=N)N)C(=O)N[C@@H](CCCCNC(=N)N)C(N)=O
With B3, in assay [6], the half-inhibitory concentration (IC50) was 140 pM; the “Relative affinity (Binding potency) vs GHRH” value is 42.3 fold, GHRH(1-29) = 1; the “Relative affinity (Binding potency) vs JI-38” value was 13.9 fold, JI-38 = 1.

B4: [Dat^1, D-Ala^2, Thr^8, Orn^12, Abu^15, Orn^21, Nle^27, Asp^28, Har^30]hGH-RH(1-30)NH2 (peptide)
chain: [Desaminotyrosyl][dA]DAIFTTSYR[Orn]VL[Abu]QLSAR[Orn]LLQDI[Nle]DR[hArg]-NH2
SMILES: CCCC[C@H](NC(=O)[C@@H](NC(=O)[C@H](CC(=O)O)NC(=O)[C@H](CCC(N)=O)NC(=O)[C@H](CC(C)C)NC(=O)[C@H](CC(C)C)NC(=O)[C@H](CCCN)NC(=O)[C@H](CCCNC(=N)N)NC(=O)[C@H](C)NC(=O)[C@H](CO)NC(=O)[C@H](CC(C)C)NC(=O)[C@H](CCC(N)=O)NC(=O)[C@H](CC)NC(=O)[C@H](CC(C)C)NC(=O)[C@@H](NC(=O)[C@H](CCCN)NC(=O)[C@H](CCCNC(=N)N)NC(=O)[C@H](Cc1ccc(O)cc1)NC(=O)[C@H](CO)NC(=O)[C@@H](NC(=O)[C@@H](NC(=O)[C@H](Cc1ccccc1)NC(=O)[C@@H](NC(=O)[C@H](C)NC(=O)[C@H](CC(=O)O)NC(=O)[C@@H](C)NC(=O)CCc1ccc(O)cc1)[C@@H](C)CC)[C@@H](C)O)[C@@H](C)O)C(C)C)[C@@H](C)CC)C(=O)N[C@@H](CC(=O)O)C(=O)N[C@@H](CCCNC(=N)N)C(=O)N[C@@H](CCCCNC(=N)N)C(N)=O
As for B4, in assay [6], the IC50 came out at 70 pM; the “Relative affinity (Binding potency) vs GHRH” value is 84.5 fold, GHRH(1-29) = 1; the “Relative affinity (Binding potency) vs JI-38” value was 27.8 fold, JI-38 = 1.
